Test results reported in US20100330076A1.

Columns and labels:
[1] = molecular target: FcγRI (human) (UniProt P12314); experiment: BIACore SPR
[2] = molecular target: FcγRIa (human) (UniProt P12314); experiment: BIACore SPR
FcγRIa (human), sequence (P12314 16-292): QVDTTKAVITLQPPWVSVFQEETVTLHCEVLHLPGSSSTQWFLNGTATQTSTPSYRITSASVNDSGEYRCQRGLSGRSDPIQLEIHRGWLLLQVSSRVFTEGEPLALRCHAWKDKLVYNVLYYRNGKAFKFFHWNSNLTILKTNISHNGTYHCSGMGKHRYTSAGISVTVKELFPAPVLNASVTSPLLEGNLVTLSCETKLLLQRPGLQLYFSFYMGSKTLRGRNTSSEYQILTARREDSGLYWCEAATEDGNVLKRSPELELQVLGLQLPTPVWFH

FcγRI (human), sequence (P12314 16-292): as above

| Substance | Kd [1] | Kd [2] |
| --- | --- | --- |
| Aglycosylated wild type Trastuzumab | 382 nM | – |
| Aglycosylated wild type trastuzumab | – | 382 nM |
